Test results as given in the nanobody polyreactivity screen of Harvey et al. (2022).

Test: yeast display, Sf9 membrane polyspecificity reagent, FACS + sequencing; frameworks hold sequencing errors
Procedure, shortened: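 After 36–48 hours of galactose induction, yeast (Saccharomyces cerevisiae BJ5465) displaying a synthetic nanobody library were stained at 4 °C for 1 hour with 10% biotinylated, detergent-solubilized Sf9 membrane reagent. Streptavidin microbeads enriched the stained cells before FACS sorting into low and high (top ~1%) gates on anti-HA and streptavidin fluorescence. Each clone's polyreactivity label reflects its gate of origin.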

Row | Sequence | polyreactivity (PSR sort gate)
1 | QGQLVESGGGLVQAGGSLRLSCAASGSTFGYNVMGWYRQAPGKERELVAAINYSGVRTYYADSVKGRFTISRDNAKNTVYLQMNSLKPEDTAVYYCNATPTRAVGPYQYNYWGQGTQVTVSS | high polyreactivity
2 | QVQLVESGGGLVQAGGSLRLSCAASGRTFVYYAMGWYRQAPGKERELVATISTTGGRTYYADSVKGRFTISRDNAKNTVYLQMNSLKPEDTAVYYCAADLYGAYGYWGQGTQVTVSS | low polyreactivity
3 | QVQLVESGLCLVQAGGSLRLSCAASGRIFRSYLMGWYRPAPGKERELVAAISNSGTRTYYADSVKGRFTISRDNAKNTVYLQKNSLKPEDTAVYYFITRRGRGSVDYDYWGQGSQVTVSS | high polyreactivity
4 | QVQLVESGGGLVQAGGSLRLSCAASGFTFVPYAMGWYRPAPGKEREFVAAITSSGTTNYADSVKGRFTISRDNAKNTVYLQMNSLKPEDTAVYYCAADPDSGQVPFDYWGQGTQVTVSS | low polyreactivity
5 | QVQLVESGGGLVQAGGSLSLSCAASGFTFGTNAMGWYRQAPGKERELVAAISSRGGSTYYADSVKGRFTISRDNAKNTVYLEMNSLKPEDTAVYYCARRVAGRQHEYGYWGLGTQVTVSS | high polyreactivity
6 | QVQLVESGVGLVQAGGSLRLSCAASGSTFKGYTMGWYRQAPGKERELVAAITYSGGRTYYADSVKGRFTISRDNAKNTVYLQMNSLKPEDTAVYYCAARQQWVKVEYDYWGQGTQVTVSS | high polyreactivity
7 | QVQLVESGGGLVQAGGSLRLSCAASGRIFVYNAMGWYRQAPGKERELVAAISKGGGSTYYADSVKGRFTISRDNAKNTVYLQMNSLKPEDTAVYYCAAVVSGRYWGKKITYDYWGQGTQVSVSS | high polyreactivity
8 | QVQLVESGGGLVQAGGSLRLSCAASGSTFSVYAMGWYRQAPGKERELVASISSSVGRTFYADSVKGRFTISRDNSKNTVYLQMNSLKPEDTAVYYCNAGVRYSGFDYWGQGTQVTVSS | high polyreactivity
9 | QVQLVESGGGLVQAGGSLRLTWAASGSIFTYYTRGWYRQAPGKERELVATIRYTGGNTYYADSVKGRFTISRDNAKNTVYLQMNILKPEDTAVYYCATGYSYRNVPTFRWLYYWGQGTQVTVSS | low polyreactivity
10 | QVQLVESGGGLVQAGCSLRLSCAASGSTLNSYFMGWYRQAPGKERELVATIRSGSSTNYADSVKGRFTISRDNAKNTVYLQMNILKPEDTAVYYCAADAYSLCYDSWGQGTQVTVSS | low polyreactivity
11 | QVQLVESGGGLVQAGGSLRLSCAASGRTFYTYAMGWYRQAPGKERELVAAITRRGGSTFYADSVKGRFTISRDNAKNTVYLQMNSLKPEDTAVYYCAARSTVGPQYGVRFNYWGQGTQVTVSS | high polyreactivity
12 | QVQLVESGGGLVQAGGSLRLSCASSGYIYIVNAMGWYRQAPGKERELDAAINSSGGNTYYADSVKGRFTISRDNAKNTVYLQMNSLKPEDTGVYYCAADQAKDISFEYDYWGQGTQVTVSS | low polyreactivity
13 | QVQLVESGGGLVQAGGSLRLSCAASGSTFTVNGMGWYRQAPGKERELVAAITWGGGSTYYADSVKGRFTISRDNAKNTVYLQMNSLKPEDTAVYYCAADDGYLFDYWGQGTQVTVSS | low polyreactivity
14 | QVQLVESGGGLVQAGGSLRLSCAASGSIFVGYAMGWYRLAPGKERELVASITNGDSTNYADSVKGRFTISRDNAKNTVYLQMNSLKPEDTAVYYCAADYYSFHPSGWYGYEYWGQGTQVTVSS | low polyreactivity
15 | QVQLVESGGGLVQAGGSLRLSCAASGLTFYAYAMGWYRQAPGKERELVAGISRSGGRTYYADSVKGRFTISRDNAKNTVYLQMNSLKPEDTAVYYCAAGIPVTSRFYGMDWGQGTQVTVSS | high polyreactivity
16 | QVQLVESGGGLVQAGGSLRLSCAASGSIVYANTMGRYRQAPGKERELVAAIRSVGRTYYADSVKGRFTISRDNAKNTVYLQMNSLKPADTAVYYCAADPRSYFTSEYWGQGTQVTVSS | low polyreactivity
17 | QVQLVESGGGLVQAGGSLRLSCAASGRTFGGNAMGWYRQAPGKERELVATIRSSSSTNYADSVKGRFTISRDNAKNTVYLQMNSLKPEDTAVYYCARRSQRGIYSMYYWGQGTQVTVSS | low polyreactivity
18 | QVQLVESGGGLVQAGGSLRLSCAASGFIFKPNALGWYRQAPGKERELVAAITWGGDNTYYADSVKGRFTISRDNAKNTVYLQMNSLKPEDSAVYYCAAEWKFHSDASYIYDYWGQGTQVTVSS | high polyreactivity
19 | QVQLVESGGGLVQAGGSLRLSCAASGLILPYYAMGWYRQAPGTERELVAAISRTAGRTSYADSVKGRFTISRDNAKNTVYLQMNSLKPEDTAVYYCAAVGQSGGRRYDYWGQGTQVTVSS | high polyreactivity
20 | QVQLVESGGGLVQAGGSLSLSCAASGIIIRRYAMGWYRQAPRKERELVATITWSGGSTYYADSVKGRFTISRDNAKNTVYLQMNSLKPEDTAVDYCAKLTSYRGRYNYWGQGTQVTVSS | high polyreactivity
21 | QVQLVESGGGLVQAGGSLRLSCAASGFTFYGYAMGWYRQAPGKERELVAAISSSGGRTYYADSVKGRFTISRDNAKNTVYLQMNSLKPEDTAVYYCAADYTSRDYYYWGQGTQVTVSS | high polyreactivity
22 | QVQLVESGGGLVQAARSLRLSCAASGRIFNYYAMGWYRLAPGKERELVAAINSGGSTYADSVKGRFTISRDNAKNTVYLPMNSLKPEDTAVYYCAKDGQLQSGRERPSGYDHWGQGTQVTVSS | low polyreactivity

Row | Sequence | polyreactivity (PSR sort gate)
23 | QVQLVESGGGLVQSGGSLRLSCAASGCIFSKNAMGWYRPAPGKERELVAAISWSGGSTSYADSVKGRFTISRDNAKNTVYLQMNSLKPEDTAVYYCARVGAIPSRYGYWGQGTQVTVSS | high polyreactivity
24 | QVQLVESGGGLVQAGGSLRLSCAASGSILHLYAMGWYRQAPGKERELVARINSGGTTNYADSVKGRFTISRDNAKNTVYLQMNSLKPEDTAVYYCAARFTPYITSDDGHYDYWGQGTQVTVSS | low polyreactivity
25 | QVQLVESGGGLVQAGGSLRLSCAASGSIFGAYAMGWYRQAPGKERELVAAITWRGGSTYYADSVKGRFTISRDNAKNTVYLQMNSLNPEDTAVYYCATDTWGSYYDDDDYWGQGTEVTVSS | high polyreactivity
26 | QDQLVDSGGGLVQAGGSLRLSCAPSGSTIYPNAKGWTRQAPGKERELVAGISSGGGTYYADSVKGRFTISRDNAKNTVYLQMNSLKPEDTAVYYCNAYFLSSCLDYLGQGTQVTVSS | low polyreactivity
27 | QVQLVESGGRLVQAGGSLRLSCAASGSIFAVNAMGWYRQAPGKERELVAAIDWSDGITYYADSVKGRFTISRDNAKNTVYLKMNSLKPEDTALNYCAADATAYGWYVEQFSFYDNDYWGQGTQVTVSS | high polyreactivity
28 | QVQLVESGGGLVQAGGSLRLSCAASGRTFVFYAMGWYRQAPGKERELVAAITSSGRTKYADSVKGRFTISRDNAKNTVYLQMNSLKPEDTAVYYCAVLRWPGLDYYWGQGTQVTVSS | high polyreactivity
29 | QVQLVESGGGLVQAGGSLRLSCAASGGIFYGNVMGWYRHAPGKERELVADITSVGSTYYADSVKGRFTISRDNAKNTVYLQMNSLKPEDTAVYYCAAETYLVFSTWYGYDYCGQGTQVTVSS | low polyreactivity
30 | QVQLVESGGGLVQAGGSLRLSCAASGSPFDYNAMGWYRPAPGKERELVAASDVSGDNTYYADSVKGRFTISRDNAKNTVYLQMNSLKPEETAVYYCNADDYWRGTSDYDYWGQGTQVTVSS | low polyreactivity
31 | QVQLVESGGGLVQAGGSLRLICAASGFIFGHYAMGWYRQAPGNERELVAAISTGGDGTYYADSVKGRFTISRDNAKNTVYLQMNSLKPEDTAVYYCAVRHRASGILYYYWGQATQVTVSS | low polyreactivity
32 | QVQLLESGGGLVQAGGSLRLSCASSGFIFAIYAMGWYRQAPGKERELVAAITSSSSTYADSVKGRFTISRDNAKNTVYLQMNSLKPEDTAVYYCAADTYSYRYSNDYWGQGTQVTVSS | low polyreactivity
33 | QVQLVESGGGLVQAGGSLRVSCAASGSIFQANAMGGYRQAPGKERELVAASRWSGGSTNYPDSVKGRFSISRDNAKNTVYLPMNSLKPEDTAVYYCAAKRFSSPYWEYYWGQGTQVTVSS | high polyreactivity
34 | QVQLVESGGGLVQAGGSLRLSCAASGSTFSRYTMGWYRQAPGKERELVASITRGGSTNYADSVKGRFTISRDNAKNTVYLQMNSLKPEDTAVYYCAARTARVSRYDYWGQGTQVTVSS | high polyreactivity
35 | QVQLVESGGGLVQAGGSLRLSCAASGLIFGPYAMGWYRQAPGKERELVAAITSSGGSTYYADSVKGRFTISRDNAKNTVYLQMNSLKPEDTAVYSCAARGSPRYYARYNYWGQGTQVTVSS | low polyreactivity
36 | QVQLVESGGGLVQAGGSLRLSCAASGSTFSPYAMGWYRQAPGKERELVADISWPGGTTYYADSVKGRFTISRDNAKNTVYLQMNSLKPEVTAVYYCAVTYWDYTFQITYEYWGQGTQVTVSS | low polyreactivity
37 | QVQLVESGGGVVQAGGSLRLSCSASGRTLDKNVMGWYRQAPGKERELVAAINTGGRTYYADSVKGRFTISRDNAKNTVYLQMNSLKPEDTAVYYCAKEGHVNPRPTVGGDYWGQGTQVTVSS | low polyreactivity
38 | QVQLVESGGGLVQAGGSLRLSCAASGSIFLGYTMGWYRQAPGKERELVAAINSSGGSTYYADSVKGRFTISRDNAKNTVYLQMNSLKPEDTAVYYCADANSILLFDSWGQGTQVTVSS | low polyreactivity
39 | QVQLVESGGGLVQAGGSLRLSCAASGRTFARYAMGSYRQAPGKERELDAAITSGGSTNYADSVKGRFTISRDNAKNTVYLQMNSLKPEDTAVYYCNARRRAPKGPIPAGNYWGQGTQVTVSS | high polyreactivity
40 | QVQLVESGGGLVQAGGSLRLSCAASGLIFRWYAMGWYRQAPGKERELVAAISRRGGTTNYADSVKGRFTISRDNAKNTVYLQMNSLKPEDTAVYYCAADYQSVGGAEYDYWGQGTQVTVSS | high polyreactivity
41 | QVQLVESGGGLVQAGGSLRLSCAASGSIFRNYAMGWYRQAPGKERELVAVITQRGGRTYYADSVKGRFTISRDNAKNTVYLQMNSLKPEDTAVYYCAASYRGVPEYDSWGQGTQVTVSS | low polyreactivity
42 | QVHLVESGGGLVQAGGSLRLSSAASGRNFFNYAMGWYRQAPGKERELVAAISTGGSTTYADSVKGRFTISRDNAKNTVYLQMNSLKPEDTAVYYCARRGRRYRQYSRYYYWGQGTQVTVSS | high polyreactivity
43 | QVQLVESGGGLVQAGGSLRLSCAASGFIFYLYAMGWYRQAPGKERELVAAIDSGDDTDYADSVKGRFTISRDNAKNTVYLQMNSLKPEDTAVYYCAAGAYWPWGEDYWGQGTQVTVSS | high polyreactivity
